Our source for the protein stability index values is the supplement of paper PMC10724198.

In this data set the test system is Saccharomyces cerevisiae. Put plainly: protein stability index of tFT-peptide fusion (C-terminal peptide) (PSI (0-1 scale)); higher = more stable (slower turnover). The note with it: temperature: 30 C. How it is done:
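MPS profiling in S. cerevisiae of the yeast C-terminome library: the last 12 aa of each annotated ORF are fused to the C-terminus of a sfGFP-mCherry timer, after a GGGS linker. Cells are FACS-sorted into 8 mCherry/sfGFP bins and deep-sequenced. PSI runs from 0 (unstable) to 1 (stable); wild type and das1Δ backgrounds, two technical replicates each.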

[1] abbreviates: genetic background: das1 deletion.

± gives the standard deviation of the averaged measurements.

As to DDILSHGFEPLA [HTC1 C-terminal 12 aa], the protein stability index reads like this: under setting [1], 0.7177 ± 0.0033; (genetic background: wild type) 0.706 ± 0.027.

For DDKFRRSYDVKK [ERG13 C-terminal 12 aa], the protein stability index was found to be 0.731 ± 0.026 under setting [1] and 0.753 ± 0.12 (genetic background: wild type).

For DDTVQFMRRALE [EAF5 C-terminal 12 aa], the protein stability index is, setting by setting: under setting [1], 0.665 ± 0.045; (genetic background: wild type) 0.719 ± 0.044.

For the sequence DEFWTDLFMNDI [WAR1 C-terminal 12 aa], the protein stability index runs as follows: under setting [1], 0.77 ± 0.0079; (genetic background: wild type) 0.757 ± 0.036.

In the case of DEQKHNENENSR [RPO21 C-terminal 12 aa], the protein stability index runs as follows: under setting [1], 0.693 ± 0.022; (genetic background: wild type) 0.708 ± 0.021.

Consider DESVDMNVGISY [YCL046W C-terminal 12 aa], for which the protein stability index amounted to 0.721 ± 0.0092 under setting [1] and 0.718 ± 0.035 (genetic background: wild type).

As for DETIKLKDKKIK [MRPL6 C-terminal 12 aa], the protein stability index was found to be 0.714 ± 0.012 under setting [1] and 0.655 ± 0.028 (genetic background: wild type).

Consider DFFREVKYGKKQ [ODC1 C-terminal 12 aa], for which the protein stability index by setting is: under setting [1], 0.7097 ± 0.0027; (genetic background: wild type) 0.72329 ± 0.00028.

“DFFYFFQGPFVL [YOR072W-B C-terminal 12 aa]”: the protein stability index reads like this: under setting [1], 0.721 ± 0.013; (genetic background: wild type) 0.731 ± 0.044.

In the case of DGGWGNRGRSNY [DBP2 C-terminal 12 aa], the protein stability index under setting [1] stood at 0.701 ± 0.01 and the protein stability index (genetic background: wild type) amounted to 0.667 ± 0.05.

On to DGKIKIWKISRN [GID7 C-terminal 12 aa], for which the protein stability index under setting [1] was determined as 0.701 ± 0.021 and the protein stability index (genetic background: wild type) is 0.711 ± 0.086.

DGLLKNVWSYSR [RPS21A C-terminal 12 aa]: the protein stability index is, setting by setting: under setting [1], 0.7161 ± 0.0069; (genetic background: wild type) 0.7137 ± 0.0025.

As to DGPKFTFKRRKG [XRS2 C-terminal 12 aa], the protein stability index stood at 0.713 ± 0.027 under setting [1] and 0.778 ± 0.041 (genetic background: wild type).

DGWIPTRTDDVK [TAD1 C-terminal 12 aa] returned a protein stability index under setting [1] of 0.703 ± 0.008 and a protein stability index (genetic background: wild type) of 0.707 ± 0.094.

On to DGYPKDNEDIDP [MAL13 C-terminal 12 aa], for which the protein stability index under setting [1] was found to be 0.70018 ± 0.0004 and the protein stability index (genetic background: wild type) stood at 0.708 ± 0.043.

As to DIEVDHTKSTDP [DPB3 C-terminal 12 aa], the protein stability index is, setting by setting: under setting [1], 0.6917 ± 0.0038; (genetic background: wild type) 0.676 ± 0.018.

For the sequence DILSQIIESCWV [YNL174W C-terminal 12 aa], the protein stability index by setting is: under setting [1], 0.654 ± 0.0069; (genetic background: wild type) 0.705 ± 0.083.

Regarding DIMVFEISNCRV [HIS1 C-terminal 12 aa], the protein stability index was 0.6816 ± 0.0057 under setting [1] and 0.73 ± 0.052 (genetic background: wild type).

For the sequence DIPRSNVYGSLI [SCY1 C-terminal 12 aa], the protein stability index is 0.7131 ± 0.0063 under setting [1] and 0.672 ± 0.044 (genetic background: wild type).

As for DITYDDYKSIDF [SUT1 C-terminal 12 aa], the protein stability index is 0.694 ± 0.024 under setting [1] and 0.703 ± 0.095 (genetic background: wild type).

In the case of DLEMEVIAVEKN [MMF1 C-terminal 12 aa], the protein stability index was found to be 0.681 ± 0.0085 under setting [1] and 0.674 ± 0.034 (genetic background: wild type).

Take DLKKLIWNEIFS [FUS3 C-terminal 12 aa]: the protein stability index under setting [1] came out at 0.707 ± 0.021 and the protein stability index (genetic background: wild type) is 0.684 ± 0.027.

DLQSLIESNGFA [PFK27 C-terminal 12 aa]: the protein stability index is, setting by setting: under setting [1], 0.689 ± 0.021; (genetic background: wild type) 0.689 ± 0.026.

For the sequence DMLYDELMKTME [KSS1 C-terminal 12 aa], the protein stability index came to 0.7032 ± 0.00096 under setting [1] and 0.666 ± 0.022 (genetic background: wild type).

Take DNNDLAKSSSQK [CMI7 C-terminal 12 aa]: the protein stability index runs as follows: under setting [1], 0.7059 ± 0.0068; (genetic background: wild type) 0.66 ± 0.048.

With DNNTVTANPTAR [YJR012C C-terminal 12 aa], the protein stability index came to 0.7033 ± 0.0028 under setting [1] and 0.6523 ± 0.003 (genetic background: wild type).

In the case of DRCKEAVDHLMS [ISM1 C-terminal 12 aa], the protein stability index was 0.686 ± 0.011 under setting [1] and 0.70544 ± 0.00054 (genetic background: wild type).

Turning to DRIAAQTLEEDE [RPS19A C-terminal 12 aa], the protein stability index under setting [1] turned out to be 0.687 ± 0.031 and the protein stability index (genetic background: wild type) worked out at 0.693 ± 0.05.

Take DSDLFFVAEAIS [YIL032C C-terminal 12 aa]: the protein stability index reads like this: under setting [1], 0.7373 ± 0.0022; (genetic background: wild type) 0.703 ± 0.022.

Consider DSFVEFWGRILY [PUL4 C-terminal 12 aa], for which the protein stability index worked out at 0.704 ± 0.033 under setting [1] and 0.6623 ± 0.0034 (genetic background: wild type).

For DSVIVVLKTPVE [SMD2 C-terminal 12 aa], the protein stability index reads like this: under setting [1], 0.67383 ± 0.00026; (genetic background: wild type) 0.658 ± 0.041.

DTDGMQDQSSNI [IVY1 C-terminal 12 aa]: the protein stability index runs as follows: under setting [1], 0.693 ± 0.019; (genetic background: wild type) 0.679 ± 0.019.

Take DVDLTKSGGFKT [CKB2 C-terminal 12 aa]: the protein stability index is, setting by setting: under setting [1], 0.67664 ± 0.00023; (genetic background: wild type) 0.714 ± 0.058.

As for DVHSKIEKQLGI [UMP1 C-terminal 12 aa], the protein stability index is 0.7202 ± 0.0061 under setting [1] and 0.697 ± 0.017 (genetic background: wild type).

As to DWVSHGGDKLDL [RDL1 C-terminal 12 aa], the protein stability index was 0.703 ± 0.042 under setting [1] and 0.704 ± 0.012 (genetic background: wild type).

In the case of EAAKKSEKKSKK [RPL34B C-terminal 12 aa], the protein stability index stood at 0.702 ± 0.015 under setting [1] and 0.706 ± 0.042 (genetic background: wild type).

Regarding EAQTSRAKNELS [PHD1 C-terminal 12 aa], the protein stability index is, setting by setting: under setting [1], 0.6855 ± 0.004; (genetic background: wild type) 0.575 ± 0.011.

As to EAVKNDDIQIFG [BFR2 C-terminal 12 aa], the protein stability index reads like this: under setting [1], 0.6921 ± 0.0018; (genetic background: wild type) 0.722 ± 0.031.

On to EDADNDNDYDHE [SAP155 C-terminal 12 aa], for which the protein stability index worked out at 0.677 ± 0.035 under setting [1] and 0.682 ± 0.0061 (genetic background: wild type).

Take EDHRDISGKDVN [UBP1 C-terminal 12 aa]: the protein stability index by setting is: under setting [1], 0.68575 ± 0.0005; (genetic background: wild type) 0.687 ± 0.033.

As for EDLDADGDHKLV [TUB4 C-terminal 12 aa], the protein stability index by setting is: under setting [1], 0.6839 ± 0.0032; (genetic background: wild type) 0.672 ± 0.0083.

The sequence EDLDSDLFSEVE [SSF1 C-terminal 12 aa] had a protein stability index under setting [1] of 0.682 ± 0.02 and a protein stability index (genetic background: wild type) of 0.732 ± 0.027.

With EEEKRHGINLKC [GUP2 C-terminal 12 aa], the protein stability index by setting is: under setting [1], 0.6905 ± 0.004; (genetic background: wild type) 0.687 ± 0.045.

The sequence EEFINKLVKAMN [RPL7B C-terminal 12 aa] came in with a protein stability index under setting [1] of 0.649 ± 0.012 and a protein stability index (genetic background: wild type) of 0.6163 ± 0.0019.

Turning to EEGIDPSTYLNN [SUB2 C-terminal 12 aa], the protein stability index runs as follows: under setting [1], 0.709 ± 0.033; (genetic background: wild type) 0.684 ± 0.014.

In the case of EEHHFYREHIFT [OCA4 C-terminal 12 aa], the protein stability index came to 0.7231 ± 0.0018 under setting [1] and 0.7118 ± 0.0058 (genetic background: wild type).

With EEKTKKEKSLLQ [NPP2 C-terminal 12 aa], the protein stability index by setting is: under setting [1], 0.7035 ± 0.0011; (genetic background: wild type) 0.726 ± 0.072.

Take “EELPSDIATLLN [YKR059W; YJL138C C-terminal 12 aa]”: the protein stability index turned out to be 0.7021 ± 0.00081 under setting [1] and 0.716 ± 0.031 (genetic background: wild type).

As to EESDSPESTAFY [PMC1 C-terminal 12 aa], the protein stability index reads like this: under setting [1], 0.699 ± 0.01; (genetic background: wild type) 0.6671 ± 0.0055.

As for EETEKKLKNLKL [YRB30 C-terminal 12 aa], the protein stability index by setting is: under setting [1], 0.703 ± 0.029; (genetic background: wild type) 0.684 ± 0.037.

Regarding EEVLEETKEKVE [PRT1 C-terminal 12 aa], the protein stability index was found to be 0.689 ± 0.034 under setting [1] and 0.685 ± 0.013 (genetic background: wild type).

As for EEWSSKFGSNGS [YTA6 C-terminal 12 aa], the protein stability index by setting is: under setting [1], 0.7431 ± 0.0031; (genetic background: wild type) 0.725 ± 0.014.

Regarding EFLQIMKARISK [SEC24 C-terminal 12 aa], the protein stability index reads like this: under setting [1], 0.686 ± 0.011; (genetic background: wild type) 0.716 ± 0.048.

Consider “EGRGYQQIHKLS [YHR139C-A C-terminal 12 aa]”, for which the protein stability index by setting is: under setting [1], 0.721 ± 0.018; (genetic background: wild type) 0.253 ± 0.0035.

Turning to EGSAFKKQKHYR [NOP9 C-terminal 12 aa], the protein stability index turned out to be 0.703 ± 0.0097 under setting [1] and 0.701 ± 0.012 (genetic background: wild type).

As for “EIALRKSGAVGS [YMR008C-A C-terminal 12 aa]”, the protein stability index is, setting by setting: under setting [1], 0.689 ± 0.008; (genetic background: wild type) 0.6727 ± 0.0038.

For the sequence “EIGGLLLQSFYN [YPL119C-A C-terminal 12 aa]”, the protein stability index amounted to 0.687 ± 0.039 under setting [1] and 0.7378 ± 0.0018 (genetic background: wild type).

Consider EIGHMYQKIKKS [MNN11 C-terminal 12 aa], for which the protein stability index runs as follows: under setting [1], 0.721 ± 0.0077; (genetic background: wild type) 0.317 ± 0.014.

For EIKCCHNGRALK [SAT4 C-terminal 12 aa], the protein stability index under setting [1] came out at 0.668 ± 0.023 and the protein stability index (genetic background: wild type) was 0.697 ± 0.06.

EIKQRNLRMQRQ [MPO1 C-terminal 12 aa]: the protein stability index is, setting by setting: under setting [1], 0.683 ± 0.026; (genetic background: wild type) 0.678 ± 0.01.

Regarding EKAKKSLSKMFS [CPR6 C-terminal 12 aa], the protein stability index under setting [1] is 0.688 ± 0.018 and the protein stability index (genetic background: wild type) turned out to be 0.6927 ± 0.0033.

As to EKLKLLNSQQKD [PET191 C-terminal 12 aa], the protein stability index under setting [1] stood at 0.682 ± 0.014 and the protein stability index (genetic background: wild type) is 0.722 ± 0.029.

For the sequence ELASSILKELKL [KIN1 C-terminal 12 aa], the protein stability index runs as follows: under setting [1], 0.707 ± 0.022; (genetic background: wild type) 0.703 ± 0.054.

Consider ELDDILGSDSDF [MPH1 C-terminal 12 aa], for which the protein stability index by setting is: under setting [1], 0.711 ± 0.02; (genetic background: wild type) 0.6837 ± 0.0036.

In the case of ELEELLEPILAN [GRX1 C-terminal 12 aa], the protein stability index was 0.406 ± 0.028 under setting [1] and 0.4708 ± 0.00077 (genetic background: wild type).

ELFTIISRIIED [TSL1 C-terminal 12 aa]: the protein stability index is, setting by setting: under setting [1], 0.702 ± 0.016; (genetic background: wild type) 0.711 ± 0.046.

Consider ELIEKLKEVKAI [CIR1 C-terminal 12 aa], for which the protein stability index was found to be 0.686 ± 0.018 under setting [1] and 0.34 ± 0.013 (genetic background: wild type).
